Reference: the supplement of paper PMC9112550, “Optimization of the antimicrobial peptide Bac7 by deep mutational scanning” (BMC Biology, 2022)

System: Escherichia coli TOP10
Assay: shrunken log2 fold change of peptide-encoding DNA abundance (4.5 h post-induction vs induction); higher = less antimicrobial activity (less host growth inhibition)
Conditions: time post-induction: 4.5 h; library: site-saturation at positions 5, 18, 19, 20
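Further: peptides expressed intracellularly from a pBAD plasmid library in pooled LB shake-flask culture, induced with 0.3% L-arabinose, DNA abundance read by NGS, three biological replicates, DESeq2 with apeglm shrinkage.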

RRIRQRPPRLPRPRPRPSHFPRP and RRIRDRPPRLPRPRPRPYRAPRP are within 0.2 log units of each other in “shrunken log2 fold change” value: 0.0685 for the first, -0.118 for the second.

First: RRIRLRPPRLPRPRPRPEPPPRP
Second: RRIRTRPPRLPRPRPRPVYSPRP
The “shrunken log2 fold change” value of the first is higher: 0.53 for the first, -0.239 for the second.

First: RRIRRRPPRLPRPRPRPNADPRP
Second: RRIRKRPPRLPRPRPRPWGKPRP
The “shrunken log2 fold change” value of the first is higher: 0.579 for the first, 0.0646 for the second.

Compared with RRIRQRPPRLPRPRPRPSKAPRP, RRIRKRPPRLPRPRPRPVKQPRP is lower in “shrunken log2 fold change” value: 0.356 for the first, 0.0206 for the second.

RRIRIRPPRLPRPRPRPFMRPRP and RRIRVRPPRLPRPRPRPRKNPRP are within 0.2 log units of each other in “shrunken log2 fold change” value: 0.0516 for the first, 0.0784 for the second.

First: RRIRLRPPRLPRPRPRPWEDPRP
Second: RRIRSRPPRLPRPRPRPYAPPRP
The “shrunken log2 fold change” value of the first is higher: 0.0824 for the first, -0.205 for the second.

Compared with RRIRHRPPRLPRPRPRPACWPRP, RRIRCRPPRLPRPRPRPKNDPRP is lower in “shrunken log2 fold change” value: 0.375 for the first, -0.048 for the second.

First: RRIRNRPPRLPRPRPRPNLAPRP
Second: RRIRCRPPRLPRPRPRPTFHPRP
The “shrunken log2 fold change” value of the first is higher: -0.137 for the first, -0.366 for the second.

RRIRCRPPRLPRPRPRPLCRPRP and RRIRPRPPRLPRPRPRPRQSPRP are within 0.2 log units of each other in “shrunken log2 fold change” value: 0.0269 for the first, 0.0298 for the second.

Going from RRIRIRPPRLPRPRPRPSNCPRP to RRIRVRPPRLPRPRPRPGEVPRP, the “shrunken log2 fold change” value rises from -0.24 to 0.101.

Compared with RRIRTRPPRLPRPRPRPRNIPRP, RRIRSRPPRLPRPRPRPYGAPRP is higher in “shrunken log2 fold change” value: -0.623 for the first, -0.318 for the second.

First: RRIRKRPPRLPRPRPRPGTCPRP
Second: RRIRERPPRLPRPRPRPYKMPRP
The “shrunken log2 fold change” value of the first is higher: 0.258 for the first, -0.0803 for the second.

RRIRARPPRLPRPRPRPPGNPRP and RRIRGRPPRLPRPRPRPVMAPRP are within 0.2 log units of each other in “shrunken log2 fold change” value: 0.574 for the first, 0.745 for the second.

RRIRIRPPRLPRPRPRPMAHPRP and RRIRTRPPRLPRPRPRPMLVPRP are within 0.2 log units of each other in “shrunken log2 fold change” value: -0.0137 for the first, -0.000238 for the second.

RRIRARPPRLPRPRPRPCNLPRP and RRIRTRPPRLPRPRPRPMDNPRP are within 0.2 log units of each other in “shrunken log2 fold change” value: -0.314 for the first, -0.458 for the second.

Compared with RRIRSRPPRLPRPRPRPVLAPRP, RRIRRRPPRLPRPRPRPNHLPRP is lower in “shrunken log2 fold change” value: 0.557 for the first, -0.394 for the second.

Going from RRIRERPPRLPRPRPRPGAFPRP to RRIRARPPRLPRPRPRPVDWPRP, the “shrunken log2 fold change” value rises from -0.0461 to 1.01.

Going from RRIRKRPPRLPRPRPRPSDFPRP to RRIRCRPPRLPRPRPRPGNHPRP, the “shrunken log2 fold change” value falls from -0.00266 to -0.587.

RRIRHRPPRLPRPRPRPAPWPRP and RRIRARPPRLPRPRPRPKETPRP are within 0.2 log units of each other in “shrunken log2 fold change” value: 0.0941 for the first, 0.229 for the second.

Compared with RRIRMRPPRLPRPRPRPRWSPRP, RRIRSRPPRLPRPRPRPCDIPRP is lower in “shrunken log2 fold change” value: 0.803 for the first, -0.0321 for the second.

RRIRFRPPRLPRPRPRPVLVPRP and RRIRSRPPRLPRPRPRPSDQPRP are within 0.2 log units of each other in “shrunken log2 fold change” value: -0.288 for the first, -0.127 for the second.

RRIRRRPPRLPRPRPRPRREPRP and RRIRPRPPRLPRPRPRPYAKPRP are within 0.2 log units of each other in “shrunken log2 fold change” value: 0.435 for the first, 0.258 for the second.

Compared with RRIRSRPPRLPRPRPRPSQYPRP, RRIRKRPPRLPRPRPRPEDPPRP is higher in “shrunken log2 fold change” value: -0.466 for the first, 2.99 for the second.

Compared with RRIRVRPPRLPRPRPRPYWGPRP, RRIRYRPPRLPRPRPRPKWTPRP is higher in “shrunken log2 fold change” value: -0.526 for the first, -0.298 for the second.

Compared with RRIRVRPPRLPRPRPRPGLWPRP, RRIRTRPPRLPRPRPRPEKQPRP is lower in “shrunken log2 fold change” value: 0.76 for the first, -0.0379 for the second.

Going from RRIRVRPPRLPRPRPRPEDIPRP to RRIRHRPPRLPRPRPRPVSCPRP, the “shrunken log2 fold change” value rises from -0.311 to 0.011.

RRIRDRPPRLPRPRPRPIPRPRP and RRIRRRPPRLPRPRPRPPILPRP are within 0.2 log units of each other in “shrunken log2 fold change” value: -0.187 for the first, -0.1 for the second.

First: RRIRVRPPRLPRPRPRPFIKPRP
Second: RRIRVRPPRLPRPRPRPTWLPRP
The “shrunken log2 fold change” value of the first is lower: -0.865 for the first, 0.318 for the second.

Compared with RRIRFRPPRLPRPRPRPKQFPRP, RRIRIRPPRLPRPRPRPDIHPRP is lower in “shrunken log2 fold change” value: 0.058 for the first, -0.587 for the second.

RRIRIRPPRLPRPRPRPAMHPRP and RRIRNRPPRLPRPRPRPIDYPRP are within 0.2 log units of each other in “shrunken log2 fold change” value: -0.221 for the first, -0.168 for the second.

RRIRERPPRLPRPRPRPLHDPRP and RRIRNRPPRLPRPRPRPQYLPRP are within 0.2 log units of each other in “shrunken log2 fold change” value: 0.0501 for the first, -0.123 for the second.

Going from RRIRPRPPRLPRPRPRPYNPPRP to RRIRQRPPRLPRPRPRPFDTPRP, the “shrunken log2 fold change” value rises from -0.84 to -0.144.

First: RRIRMRPPRLPRPRPRPDILPRP
Second: RRIRSRPPRLPRPRPRPIHLPRP
The “shrunken log2 fold change” value of the first is higher: 1.45 for the first, 0.0485 for the second.

RRIRKRPPRLPRPRPRPAVIPRP and RRIRGRPPRLPRPRPRPDTMPRP are within 0.2 log units of each other in “shrunken log2 fold change” value: 0.076 for the first, 0.00209 for the second.

RRIRRRPPRLPRPRPRPNFCPRP and RRIRWRPPRLPRPRPRPVARPRP are within 0.2 log units of each other in “shrunken log2 fold change” value: 0.171 for the first, 0.359 for the second.

Going from RRIRSRPPRLPRPRPRPFNAPRP to RRIRNRPPRLPRPRPRPFYHPRP, the “shrunken log2 fold change” value rises from -0.459 to -0.0822.

First: RRIRGRPPRLPRPRPRPQLEPRP
Second: RRIRRRPPRLPRPRPRPITAPRP
The “shrunken log2 fold change” value of the first is higher: 0.838 for the first, 0.148 for the second.

First: RRIRCRPPRLPRPRPRPNVPPRP
Second: RRIRRRPPRLPRPRPRPTRIPRP
The “shrunken log2 fold change” value of the first is lower: -0.154 for the first, 0.71 for the second.

Compared with RRIRCRPPRLPRPRPRPWIPPRP, RRIRLRPPRLPRPRPRPNMKPRP is higher in “shrunken log2 fold change” value: -0.457 for the first, -0.173 for the second.

Compared with RRIRNRPPRLPRPRPRPRFTPRP, RRIRARPPRLPRPRPRPQEWPRP is higher in “shrunken log2 fold change” value: -0.286 for the first, 0.00318 for the second.

First: RRIRRRPPRLPRPRPRPSYGPRP
Second: RRIRRRPPRLPRPRPRPAHQPRP
The “shrunken log2 fold change” value of the first is lower: -0.83 for the first, 0.732 for the second.

RRIRMRPPRLPRPRPRPFKYPRP and RRIRNRPPRLPRPRPRPSELPRP are within 0.2 log units of each other in “shrunken log2 fold change” value: -0.164 for the first, -0.135 for the second.

First: RRIRSRPPRLPRPRPRPHHLPRP
Second: RRIRARPPRLPRPRPRPHHEPRP
The “shrunken log2 fold change” value of the first is lower: -0.903 for the first, -0.119 for the second.

Compared with RRIRCRPPRLPRPRPRPEPLPRP, RRIRIRPPRLPRPRPRPNQQPRP is lower in “shrunken log2 fold change” value: 0.438 for the first, 0.0352 for the second.

First: RRIRDRPPRLPRPRPRPQYPPRP
Second: RRIRERPPRLPRPRPRPIQTPRP
The “shrunken log2 fold change” value of the first is lower: -0.219 for the first, 0.0703 for the second.

First: RRIRERPPRLPRPRPRPYRYPRP
Second: RRIRRRPPRLPRPRPRPGRQPRP
The “shrunken log2 fold change” value of the first is lower: -0.107 for the first, 0.541 for the second.

Compared with RRIRSRPPRLPRPRPRPGVEPRP, RRIRKRPPRLPRPRPRPICLPRP is lower in “shrunken log2 fold change” value: 0.463 for the first, 0.141 for the second.

RRIRHRPPRLPRPRPRPWTRPRP and RRIRLRPPRLPRPRPRPSRLPRP are within 0.2 log units of each other in “shrunken log2 fold change” value: -0.0761 for the first, -0.0544 for the second.

Going from RRIRPRPPRLPRPRPRPYYAPRP to RRIRSRPPRLPRPRPRPIADPRP, the “shrunken log2 fold change” value rises from -0.709 to 0.191.

Compared with RRIRQRPPRLPRPRPRPQINPRP, RRIRHRPPRLPRPRPRPLDWPRP is higher in “shrunken log2 fold change” value: -0.285 for the first, 0.393 for the second.

Compared with RRIRDRPPRLPRPRPRPDQWPRP, RRIRQRPPRLPRPRPRPREIPRP is lower in “shrunken log2 fold change” value: 0.396 for the first, 0.115 for the second.

RRIRVRPPRLPRPRPRPEQYPRP and RRIRNRPPRLPRPRPRPVIFPRP are within 0.2 log units of each other in “shrunken log2 fold change” value: -0.394 for the first, -0.565 for the second.

Compared with RRIRLRPPRLPRPRPRPHQCPRP, RRIRRRPPRLPRPRPRPAQWPRP is higher in “shrunken log2 fold change” value: 0.0182 for the first, 0.912 for the second.

RRIRIRPPRLPRPRPRPEHGPRP and RRIRVRPPRLPRPRPRPTQPPRP are within 0.2 log units of each other in “shrunken log2 fold change” value: -0.0885 for the first, -0.0625 for the second.

In the case of RRIRHRPPRLPRPRPRPRTSPRP, the “shrunken log2 fold change” value is reported as 0.245.
